Data published in publication PMC2743173 (Neuron, 2008).

Key:
LRP4N-Myc [1] = target: LRP4N-Myc (UniProt Q9QYP1); assay: ELISA
LRP4N-Myc [2] = target: LRP4N-Myc (UniProt Q9QYP1 21-1723); assay: ELISA
LRP4N-Myc (UniProt Q9QYP1 21-1723), sequence (Q9QYP1 21-1723): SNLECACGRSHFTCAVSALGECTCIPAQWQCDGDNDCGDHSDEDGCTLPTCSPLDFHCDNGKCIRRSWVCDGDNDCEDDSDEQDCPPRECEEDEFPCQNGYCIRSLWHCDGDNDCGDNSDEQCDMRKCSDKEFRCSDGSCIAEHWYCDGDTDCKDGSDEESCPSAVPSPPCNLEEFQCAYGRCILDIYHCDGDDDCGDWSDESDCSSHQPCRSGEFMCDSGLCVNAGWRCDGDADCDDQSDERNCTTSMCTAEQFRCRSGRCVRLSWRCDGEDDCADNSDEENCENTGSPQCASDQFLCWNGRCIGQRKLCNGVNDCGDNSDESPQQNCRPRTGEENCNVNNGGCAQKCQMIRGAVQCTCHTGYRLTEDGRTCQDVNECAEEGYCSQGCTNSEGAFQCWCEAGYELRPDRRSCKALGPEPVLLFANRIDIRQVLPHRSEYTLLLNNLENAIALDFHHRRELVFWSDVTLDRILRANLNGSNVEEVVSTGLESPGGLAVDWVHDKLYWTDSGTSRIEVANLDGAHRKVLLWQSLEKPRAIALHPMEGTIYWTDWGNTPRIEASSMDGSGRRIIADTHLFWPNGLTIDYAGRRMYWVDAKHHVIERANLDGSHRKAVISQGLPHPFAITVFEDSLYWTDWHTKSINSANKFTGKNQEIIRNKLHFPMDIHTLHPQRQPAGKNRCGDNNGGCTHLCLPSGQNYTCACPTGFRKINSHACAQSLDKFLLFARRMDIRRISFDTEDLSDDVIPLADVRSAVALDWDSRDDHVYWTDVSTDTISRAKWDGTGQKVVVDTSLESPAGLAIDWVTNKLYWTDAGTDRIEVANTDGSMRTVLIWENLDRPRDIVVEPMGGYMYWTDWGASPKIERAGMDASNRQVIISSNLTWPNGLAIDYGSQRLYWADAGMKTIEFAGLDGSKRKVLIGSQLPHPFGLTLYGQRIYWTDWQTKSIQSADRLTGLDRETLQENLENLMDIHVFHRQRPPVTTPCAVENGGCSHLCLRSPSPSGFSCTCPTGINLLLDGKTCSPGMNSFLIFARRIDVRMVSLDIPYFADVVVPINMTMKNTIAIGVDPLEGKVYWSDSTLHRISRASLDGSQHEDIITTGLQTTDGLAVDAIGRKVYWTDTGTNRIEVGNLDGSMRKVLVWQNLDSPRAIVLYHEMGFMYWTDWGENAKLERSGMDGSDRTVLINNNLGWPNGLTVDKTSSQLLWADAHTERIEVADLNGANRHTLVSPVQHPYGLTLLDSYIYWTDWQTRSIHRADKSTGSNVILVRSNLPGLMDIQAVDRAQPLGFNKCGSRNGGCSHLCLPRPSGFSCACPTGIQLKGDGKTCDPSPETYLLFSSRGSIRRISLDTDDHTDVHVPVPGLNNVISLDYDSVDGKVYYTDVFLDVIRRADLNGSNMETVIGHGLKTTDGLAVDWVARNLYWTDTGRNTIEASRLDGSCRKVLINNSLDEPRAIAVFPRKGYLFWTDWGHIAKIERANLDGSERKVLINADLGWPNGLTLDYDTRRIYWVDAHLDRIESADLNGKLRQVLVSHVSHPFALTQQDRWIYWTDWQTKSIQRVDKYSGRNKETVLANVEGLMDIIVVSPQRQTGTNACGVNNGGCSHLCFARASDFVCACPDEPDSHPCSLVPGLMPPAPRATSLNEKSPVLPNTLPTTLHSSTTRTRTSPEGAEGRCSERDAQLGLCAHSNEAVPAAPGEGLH

LRP4N-Myc (UniProt Q9QYP1), sequence (Q9QYP1 21-1723): as above

Kd (LRP4N-Myc [1]) [nM]	Kd (LRP4N-Myc [2]) [nM]	Molecule
0.5		nAgrin-AP (domain or fragment)
	0.45 ± 0.041	MuSK-AP (domain or fragment) EKLPKAPVITTPLETVDALVEEVATFMCAVESYPQPEISWTRNKILIKLFDTRYSIRENGQLLTILSVEDSDDGIYCCIANNGVGGAVESCGALQVKMKPKITRPPINVKIIEGLKAVLPCTTMGNPKPSVSWIKGDNALRENSRIAVLESGSLRIHNVQKEDAGQYRCVAKNSLGTAYSKLVKLEVEVFARILRAPESHNVTFGSFVTLRCTAIGIPVPTISWIENGNAVSSGSIQESVKDRVIDSRLQLFITKPGLYTCIATNKHGEKFSTAKAAATVSIAEWSKSQKDSQGYCAQYRGEVCDAVLAKDALVFFNTSYRDPEDAQELLIHTAWNELKAVSPLCRPAAEALLCNHLFQECSPGVVPTPMPICREYCLAVKELFCAKEWQAMEGKAHRGLYRSGMHLLPVPECSKLPSMHRDPTACTRLPYLDYKKENITTFPSITSSRPSADIPNLPASTSSFAVSPAYSMT
